Measurements as given in patent publication US20160289285A1 (Molecular Partners, published 2016).

These binders were tested against T1, human HGF (human, UniProt P14210 32-728) (assay: SPR (ProteOn)).
T1 construct: also called hepatocyte growth factor
Protocol: (§1) SPR was measured using a ProteOn instrument (BioRad) and measurement was performed according standard procedures known to the person skilled in the art.

T1 sequence (P14210 32-728 limits assumed): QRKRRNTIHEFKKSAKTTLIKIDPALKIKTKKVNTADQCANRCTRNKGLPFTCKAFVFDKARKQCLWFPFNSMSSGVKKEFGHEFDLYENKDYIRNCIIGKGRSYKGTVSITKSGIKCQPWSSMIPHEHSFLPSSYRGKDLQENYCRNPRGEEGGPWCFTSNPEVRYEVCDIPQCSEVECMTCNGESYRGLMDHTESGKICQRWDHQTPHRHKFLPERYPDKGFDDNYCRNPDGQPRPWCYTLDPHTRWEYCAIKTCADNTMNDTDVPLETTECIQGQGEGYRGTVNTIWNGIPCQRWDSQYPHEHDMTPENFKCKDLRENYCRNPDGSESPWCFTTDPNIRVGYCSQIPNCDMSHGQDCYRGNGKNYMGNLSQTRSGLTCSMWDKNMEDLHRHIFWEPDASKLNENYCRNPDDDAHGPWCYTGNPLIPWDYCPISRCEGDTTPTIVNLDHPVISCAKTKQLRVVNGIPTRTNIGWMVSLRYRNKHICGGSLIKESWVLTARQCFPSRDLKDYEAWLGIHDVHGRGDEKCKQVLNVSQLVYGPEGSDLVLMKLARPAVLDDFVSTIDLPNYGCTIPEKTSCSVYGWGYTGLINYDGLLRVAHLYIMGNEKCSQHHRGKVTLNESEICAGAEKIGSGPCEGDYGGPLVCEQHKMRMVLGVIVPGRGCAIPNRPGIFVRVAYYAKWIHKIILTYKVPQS

| binding result | Kd [nM] | Binder |
| --- | --- | --- |
| binds | – | Protein #35 (designed binder) MRGSHHHHHHGSDLGKKLLEAARAGQDDEVRILMANGADVNANDFLGLTPLHLAASTGHLEIVEVLLKYGADVNAIDAYGHTPLHLAANNGHLEIVEVLLKYGADVNAIDHFGYTPLHLAAMFGHLEIVEVLLKNGADVNAQDKFGKTAFDISIDNGNEDLAEILQKAA |
| binds | – | Protein #34 (designed binder) MRGSHHHHHHGSDLGKKLLEAARAGQDDEVRILMANGADVNAQDRWGDTPLHLAASAGHLKIVEVLLKYGADVNADDVFGDTPLHLAASLGHLEIVEVLLKYGADVNADDYAGNTPLHLAANTGHLEIVEVLLKYGADVNAQDKFGKTAFDISIDNGNEDLAEILQKAA |
| – | 0.163 | Protein #24 (designed binder) MRGSHHHHHHGSDLGKKLLEAARAGQDDEVRILMANGADVNAKDRFGDTPLHLAADIGHLEIVEVLLKAGADVNAKDWFGNTPLHLAASFGHLEIVEVLLKAGADVNAKDDYGNTPLHLAANTGHLEIVEVLLKAGADVNAQDKFGKTAFDISIDNGNEDLAEILQKAA |
| – | 0.066 | Protein #25 (designed binder) MRGSHHHHHHGSDLGKKLLEAARAGQDDEVRILMANGADVNAKDRYGDTPLHLAADIGHLEIVEVLLKAGADVNAEDYFGNTPLHLAASYGHLEIVEVLLKAGADVNAKDDYGNTPLHLAANTGHLEIVEVLLKAGADVNAQDKSGKTPADLAADAGHEDIAEVLQKAA |
| – | 0.129 | Protein #27 (designed binder) MRGSHHHHHHGSDLGKKLLEAARAGQDDEVRILLKAGADVNAKDRYGDTPLHLAADAGHLKIVEVLLKAGADVNAEDYFGNTPLHLAASAGHLEIVEVLLKAGADVNAKDDAGNTPLHLAANTGHLKIVEVLLKAGADVNAQDKSGKTPADLAADAGHEDIAEVLQKAA |

Second part, the binder before the results:

| Binder | binding result | Kd [nM] |
| --- | --- | --- |
| Protein #30 (designed binder) MRGSHHHHHHGSDLGKKLLEAARAGQDDEVRILMANGADVNTHDNFGDTPLHLAASIGHLEIVEVLLKHGADVNAFDSYGDTPLHLAASSGHLEIVEVLLKYGADVNALDYNGNTPLHLAANSGRLEIVEVLLKHGADVNAQDKFGKTAFDISIDNGNEDLAEILQKAA | binds | – |
| Protein #31 (designed binder) MRGSHHHHHHGSDLGKKLLEAARAGQDDEVRILMANGADVNAVDAWGDTPLHLAASIGHLEIVEVLLKNGADVNAADYYGDTPLHLAASAGHLEIVEVLLKYGADVNAQDDNGNTPLHLAANTGRLEIVEVLLKHGADVNAQDKFGKTAFDISIDNGNEDLAEILQKAA | binds | – |
| Protein #33 (designed binder) MRGSHHHHHHGSDLGKKLLEAARAGQDDEVRILMANGADVNAQDRWGDTPLHLAASAGHLKIVEVLLKYGADVNADDVFGDTPLHLAASLGHLEIVEVLLKYGADVNADDYAGNTPLHLAANTGHLEIVEVLLKHGADVNAQDKFGKTAFDISIDNGNEDLAEILQKAA | binds | – |
| Protein #37 (designed binder) MRGSHHHHHHGSDLGKKLLEAARAGQDDEVRILMANGADVNASDDTGLTPLHLAANRGHLEIVEVLLKHGADVNANDFAGMTPLHLAANVGHLEIVEVLLKYGADVNAHDDYGLTPLHLAANWRHLEIVEVLLKNGADVNAQDKFGKTAFDISIDNGNEDLAEILQKAA | binds | – |
| Protein #32 (designed binder) MRGSHHHHHHGSDLGKKLLEAARAGQDDEVRILMANGADVNAIDTWGNTPLHLAADYGHLEIVEVLLKNGADVNALDWFGDTPLHLAASLGHLEIVEVLLKNGADVNAVDTYGNTPLHLAANTGRLEIVEVLLKYGADVNAQDKFGKTAFDISIDNGNEDLAEILQKAA | binds | – |
| Protein #36 (designed binder) MRGSHHHHHHGSDLGKKLLEAARAGQDDEVRILMANGADVNANDSSGLTPLHLAAFYGHLEIVEVLLKYGADVNADDDWGHTPLHLAAHYGHLEIVEVLLKHGADVNAIDTRGLTPLHLAAIAGHLEIVEVLLKYGADVNAQDKFGKTAFDISIDNGNEDLAEILQKAA | binds | – |

The binders below were run against T2, human serum albumin (human, UniProt P02768 25-609) (assay: SPR (ProteOn)).
T2 construct: For SEC-MALS purified from CSL Behring 20% solution; also called HSA; SA (human)
Protocol: as §1

T2 sequence (P02768 25-609 limits assumed): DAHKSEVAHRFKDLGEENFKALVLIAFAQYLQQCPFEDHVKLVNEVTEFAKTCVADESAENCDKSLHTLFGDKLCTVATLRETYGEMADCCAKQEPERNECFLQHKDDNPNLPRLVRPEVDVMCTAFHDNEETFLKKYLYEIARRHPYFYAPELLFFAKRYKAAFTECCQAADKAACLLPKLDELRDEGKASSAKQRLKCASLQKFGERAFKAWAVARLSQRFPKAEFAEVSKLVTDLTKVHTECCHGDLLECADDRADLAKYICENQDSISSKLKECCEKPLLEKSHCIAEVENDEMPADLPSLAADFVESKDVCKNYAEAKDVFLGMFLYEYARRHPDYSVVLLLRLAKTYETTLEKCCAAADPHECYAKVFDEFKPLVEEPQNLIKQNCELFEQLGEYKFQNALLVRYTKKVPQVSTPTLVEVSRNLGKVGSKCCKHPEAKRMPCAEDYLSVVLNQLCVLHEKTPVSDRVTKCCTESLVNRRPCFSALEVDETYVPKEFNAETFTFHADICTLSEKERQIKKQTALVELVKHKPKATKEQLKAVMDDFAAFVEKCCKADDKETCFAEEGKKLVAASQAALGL

| binding result | Kd [nM] | Binder |
| --- | --- | --- |
| binds | – | Protein #53 (designed binder) MRGSHHHHHHGSDLGKKLLEAARAGQDDEVRFLMANGADVNAADERGTTPLHLAAVYGHLEIVEVLLKNGADVNAQNETGYTPLHLADSSGHLEIVEVLLKHSADVNAQDKFGKTAFDISIDNGNEDLAEILQKAA |
| binds | – | Protein #56 (designed binder) MRGSHHHHHHGSDLDKKLLEAARAGQDDEVRILMANGADVNAKDERGTTPLHLAAVYGHLEIVEVLLKAGADVNAKNETGYTPLHLADSSGHLEIVEVLLKASADVNAQDKSGKTPADLAADAGHEDIAEVLQKAA |
| binds | – | Protein #40 (designed binder) MRGSHHHHHHGSDLGKKLLEAARAGQDDEVRILMASGADVNAADYFSHTPLHLAARDGHLKIVEVLLKYGADVDASDFAGKTPLHLAANDGHLEIVEVLLKHDADVNAQDKFGKTAFDISIDNGNEDLAEILQKAA |
| binds | – | Protein #41 (designed binder) MRGSHHHHHHGSDLGKELLEAARAGQDDEVRILMANGADVNAADYFGHTPLHLAARNGHLKIVEVLLKYGADVNASDFAGKTPLHLAANDGHLEIVEVLLKHGADVNAQDIFGKTAFEISIDNGNEDLAEILQKAA |
| binds | – | Protein #42 (designed binder) MRGSHHHHHHGSDLGKKLLEAARAGQDDEVRILMANGADVNAADYFGHTPLHLAARDGHLKIVEVLLKYGADVNASDFAGKTPLHLAANDGHLEIVEVLLKHGADVNAQDKFGKTAFDISIDNGNEDLAEILQKAA |
| binds | – | Protein #43 (designed binder) MRGSHHHHHHGSDLGKKLLEAARAGQDDEVRILMANGADVNAADYFSHTPLHLAARDGHLKIVEVLLKYGADVNASDFAGKTPLHLAANDGHLEIVEVLLKHGADVNAQDIFGKTAFDISIDNGNEDLAEILQKAA |
| – | 26 | Protein #44 (designed binder) MRGSHHHHHHGSDLDKKLLEAARAGQDDEVRILMANGADVNAKDYFSHTPLHLAARNGHLEIVEVLLKAGADVNAKDFAGKTPLHLAANDGHLEIVEVLLKHGADVNAQDIFGKTPADIAADAGHEDIAEVLQKAA |
| – | 27 | Protein #50 (designed binder) MRGSHHHHHHGSDLGKKLLEAARAGQDDEVRELLKAGADVNAKDYFSHTPLHLAARNGHLKIVEVLLKAGADVNAKDFAGKTPLHLAANEGHLEIVEVLLKAGADVNAQDIFGKTPADIAADAGHEDIAEVLQKAA |
| – | 27 | Protein #47 (designed binder) MRGSHHHHHHGSDLDKKLLEAARAGQDDEVRILMANGADVNAKDYFSHTPLHLAARNGHLKIVEVLLKAGADVNAKDFAGKTPLHLAANDGHLEIVEVLLKHGADVNAQDIFGKTPADIAADAGHEDIAEVLQKAA |
| – | 22 | Protein #46 (designed binder) MRGSHHHHHHGSDLGKKLLEAARAGQDDEVRILLAAGADVNAKDYFSHTPLHLAARNGHLKIVEVLLKAGADVNAKDFAGKTPLHLAANDGHLEIVEVLLKHGADVNAQDIFGKTPADIAADAGHEDIAEVLQKAA |

The next lines start with the binder.

| Binder | binding result | Kd [nM] |
| --- | --- | --- |
| Protein #57 (designed binder) MRGSHHHHHHGSDLGKKLLEAARAGQDDEVRILMANGADVNAKDYFSHTPLHLAARNGHLKIVEVLLKAGADVNAKDFAGKTPLHLAANDGHLEIVEVLLKHGADVNAQDIFGKTPADIAADAGHEDIAEVLQKLGSPTPTPTTPTPTPTTPTPTPTGSRSDLDITGLKLN | binds | – |
| Protein #52 (designed binder) MRGSHHHHHHGSDLDKKLLEAARAGQDDEVRILMANGADVNAKDERGTTPLHLAAVYGHLEIVEVLLKAGADVNAKNETGYTPLHLADSSGHLEIVEVLLKHSADVNAQDKSGKTPADLAADAGHEDIAEVLQKAA | – | 6 |
| Protein #55 (designed binder) MRGSHHHHHHGSDLDKKLLEAARAGQDDEVRILMANGADVNAKDERGTTPLHLAAVYGHLEIVEVLLKAGADVNAKNETGYTPLHLADSSGHLEIVEVLLKHGADVNAQDKSGKTPADLAADAGHEDIAEVLQKAA | – | 15 |
| Protein #54 (designed binder) MRGSHHHHHHGSDLDKKLLEAARAGQDDEVRILMANGADVNAKDERGTTPLHLAAVYGHLEIVEVLLKAGADVNAKNETGYTPLHLADSSGHLEIVEVLLKAGADVNAQDKSGKTPADLAADAGHEDIAEVLQKAA | – | 11 |
| Protein #51 (designed binder) MRGSHHHHHHGSDLGKKLLEAARAGQDDEVRILMANGADVNAKDYFSHTPLHLAARNGHLKIVEVLLKAGADVNAKDFAGKTPLHLAANDGHLEIVEVLLKHGADVNAQDIFGKTPADIAADAGHEDIAEVLQKAA | – | 14 |
| Protein #48 (designed binder) MRGSHHHHHHGSDLGKKLLEAARAGQDDEVRILLKAGADVNAKDYFSHTPLHLAARNGHLKIVEVLLKAGADVNAKDFAGKTPLHLAANDGHLEIVEVLLKAGADVNAQDIFGKTPADIAADAGHEDIAEVLQKAA | – | 20 |
| Protein #49 (designed binder) MRGSHHHHHHGSDLGKKLLEAARAGQDDEVRELLKAGADVNAKDYFSHTPLHLAARNGHLKIVEVLLKAGADVNAKDFAGKTPLHLAANDGHLEIVEVLLKAGADVNAQDIFGKTPADIAADAGHEDIAEVLQKAA | – | 15 |
| Protein #45 (designed binder) MRGSHHHHHHGSDLGKKLLEAARAGQDDEVRILMANGADVNAKDYFSHTPLHLAARNGHLEIVEVLLKAGADVNAKDFAGKTPLHLAANDGHLEIVEVLLKHGADVNAQDIFGKTPADIAADAGHEDIAEVLQKAA | – | 13 |
